Values quoted from earlier work as cited in publication PMC10544997.

Biological target: FcγRIIa (Homo sapiens) (UniProt P12318)
Sequence (P12318 34-317): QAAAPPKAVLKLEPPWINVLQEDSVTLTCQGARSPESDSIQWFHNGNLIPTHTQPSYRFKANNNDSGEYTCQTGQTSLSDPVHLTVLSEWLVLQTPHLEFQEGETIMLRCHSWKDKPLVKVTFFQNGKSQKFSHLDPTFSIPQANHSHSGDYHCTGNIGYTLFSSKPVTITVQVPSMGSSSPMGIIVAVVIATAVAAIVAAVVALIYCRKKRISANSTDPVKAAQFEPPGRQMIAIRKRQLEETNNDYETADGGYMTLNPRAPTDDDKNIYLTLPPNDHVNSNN

IgG1 Fc (from UniProt P01857)
Kd: 1000 nM
